How the values were obtained:
[1] = molecular target: T1, human Siglec-7 expressed on human cells (primary monocytes, dendritic cells, macrophages, NK cells, … (human, UniProt Q9Y286 19-467)); experiment: cell-based or functional assay
[2] = molecular target: T1, human Siglec-7 expressed on human cells …; experiment: cell-based or functional assay; remark: listed apart in the source
[3] = molecular target: T1, human Siglec-7 expressed on human cells …; experiment: cell-based or functional assay; remark: listed apart in the source
[4] = molecular target: T1, human Siglec-7 expressed on human cells …; experiment: FACS, human primary monocytes, 10 ug/ml mAb
[5] = molecular target: T1, human Siglec-7 expressed on human cells …; experiment: FACS, human primary dendritic cells, 10 ug/ml mAb
[6] = molecular target: T1, human Siglec-7 expressed on human cells …; experiment: FACS titration on primary human dendritic cells, donor 358, 4 C
Experimental: (§1) Two Siglec-7 antibodies, 4E3 and 10B5, were titrated 2-fold for a 12-point curve with a concentration range of 6.67-0.00325 nM to assess binding and calculate half-maximal concentration (EC₅₀) for binding to primary human dendritic cells (FIG. 5B). Antibodies were serially diluted and incubated with cells in PBS with 1% BSA, 1 mM EDTA for 1 hour on ice (4° C.). Cells were pelleted and resuspended with goat anti-mouse secondary antibody conjugated with APC (BD Biosciences) at a 1:200 dilution in buffer. Secondary detection antibody was incubated for 30 minutes on ice (4° C.), then cells were washed 3 times in buffer before analyzing on a BD FACS Canto for APC MR. Data were analyzed with FlowJo Software (TreeStar).

[7] = molecular target: T1, human Siglec-7 expressed on human cells …; experiment: FACS titration on primary human dendritic cells, donor 359, 4 C
Experimental: as §1

[8] = molecular target: T2, Histidine-tagged human Siglec-7 (NovoProtein) (human, UniProt Q9Y286 19-357, limits assumed); experiment: SPR (BiaCore T200, 25 C), antibody captured on anti-mouse IgG, Siglec-7-His 100 nM, single-concentration kinetics
T2 construct: Bought protein; also called purified Siglec-7-his tagged protein; not shown: histidine tag
T2 sequence (Q9Y286 19-357 limits assumed): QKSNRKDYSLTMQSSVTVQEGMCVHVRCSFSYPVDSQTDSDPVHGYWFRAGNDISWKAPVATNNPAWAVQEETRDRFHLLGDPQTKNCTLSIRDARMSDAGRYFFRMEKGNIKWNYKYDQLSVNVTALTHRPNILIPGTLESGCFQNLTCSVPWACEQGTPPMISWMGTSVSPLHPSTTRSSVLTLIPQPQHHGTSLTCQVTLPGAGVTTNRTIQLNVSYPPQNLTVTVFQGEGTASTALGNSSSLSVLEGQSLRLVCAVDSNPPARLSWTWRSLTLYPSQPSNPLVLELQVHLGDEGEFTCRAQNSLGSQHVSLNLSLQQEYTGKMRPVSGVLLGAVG
Experimental: SPR data was collected at a rate of 10 Hz at 25′ C on a BiaCore T200 instrument. Data analysis was performed using BiaCore T200 Evaluation Software, version 2.0. HBS-EP+ (100 mM HEPES, 1.5 M NaCl, 30 mM EDTA, 0.5% v/v Surfactant P20, pH 7.4) was used as running buffer and for preparing reagents.
Mouse-derived antibodies (25 nM) against Siglec-7 were captured (60 s contact time, 30 μL/min flow rate, 0 s stabilization time) on a CM5 sensor chip (GE Healthcare) immobilized with anti-mouse IgG. Histidine-tagged human Siglec-7 (NovoProtein) was then flowed over the captured anti-Siglec-7 surface (120 s contact time, 30 μL/min flow rate, 300 s dissociation time). Concentration of antigen ranged from 5 nM to 100 nM, depending on information obtained from an initial screen. Duplicate single-concentration trials were performed and bracketed by a blank (0 nM antigen) sample. The chip surface was regenerated in between cycles using 10 mM glycine-HCl, pH1.7 (60 s contact time, 30 μL/min flow rate, 60 s stabilization time). The resulting SPR signal was obtained as the difference in response from measurements performed on a blank flow cell.
Affinity constants (KD) were calculated from the ratio kd/kₐ. For one antibody (clone 1E8), we validated the single-concentration analysis with a multiple-concentration approach (five concentrations of antigen used, plus one blank).

T1 sequence (Q9Y286 19-467): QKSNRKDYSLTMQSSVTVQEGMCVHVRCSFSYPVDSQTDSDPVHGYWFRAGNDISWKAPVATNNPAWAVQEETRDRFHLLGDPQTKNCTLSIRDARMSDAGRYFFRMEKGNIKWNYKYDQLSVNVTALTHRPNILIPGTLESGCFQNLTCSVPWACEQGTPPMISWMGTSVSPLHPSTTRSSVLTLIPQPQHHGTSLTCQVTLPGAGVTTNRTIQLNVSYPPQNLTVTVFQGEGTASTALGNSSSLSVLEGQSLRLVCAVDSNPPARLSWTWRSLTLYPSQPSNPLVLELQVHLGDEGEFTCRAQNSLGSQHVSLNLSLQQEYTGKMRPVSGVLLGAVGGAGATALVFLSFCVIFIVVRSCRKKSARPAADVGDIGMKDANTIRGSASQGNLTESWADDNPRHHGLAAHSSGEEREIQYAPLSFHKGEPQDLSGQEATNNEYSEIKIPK

Percent Siglec-7 Surface Expression, DCs [1]: 16.8%
Percent Siglec-7 Surface Expression, Monocytes [1]: 6.7%
Percent Siglec-7 Surface Expression, U937 cells [1]: 36.5%
Percent Siglec-7 Surface Expression, Macrophages [2]: 3.2%
Percent Siglec-7 Surface Expression, Microglia [2]: 5.5%
Percent Siglec-7 Surface Expression, NK cells [2]: 25.5%
EC50 of Siglec-7 cell surface downregulation, primary human dendritic cells, donor 362 [3]: 0.144 nM
EC50 of Siglec-7 cell surface downregulation, primary human dendritic cells, donor 363 [3]: 0.35 nM
EC50 of Siglec-7 cell surface downregulation, primary human dendritic cells, donor 364 [3]: 0.103 nM
EC50 of Siglec-7 cell surface downregulation, primary human dendritic cells, donor 365 [3]: 0.0713 nM
% Positive [4]: 99.2%
MFI [4]: 417
% Positive [5]: 99.6%
MFI [5]: 3230
EC50 [6]: 1.43 nM
EC50 [7]: 1.16 nM
Kd [8]: 3 nM
B1: anti-Siglec-7 antibody 10B5 (antibody, V domains shown)
VH: QVHLQQSGPELVKPGASVKISCKASGYAFTNCWMNWVRQRPGKGLDWIGRIFPGNGHTNYSGKFKDKATLTEDKSSSTAYMQLSSLTSEDSAVYFCARDYSDYYFDYWGQGTTLTVSS
VL: DVQMTQTTSSLSASLGDRVTISCRASQDINTYLNWYQQKPDGTVKLLIYYTSRLHSGVPSRFSGSGSGTDYSLTISNLEQEDIATYFCQQGNTLPWTFGGGTKLEIK
notes: that light chain holds several Z and differs in its CDRs from S7-10B5.1 / 10B5L1; also called S7-10B5; mAb S7-10B5

— patent US20200277374A1 (Alector, published 2020)
